From the RNAGym collection of RNA variant scans (doi:10.1093/nar/gkz1192) come the findings set out here.

First the molecules themselves.
B1: CPEB3 Ribozyme (parent)
chain: UAACAGGGGGCCACAGCAGAAGCGUUCACGUCGCAGCCCCUGUCAGAUUCUGGUGAAUCUGCGAAUUCUGCUGUAUAUCUC

Variants of B1 are the subject of this data set. As to the kind of experiment: self-cleavage, relative activity (ratio to wild type); higher = more cleavage; in vitro, sequencing. A digest of the protocol: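 Libraries of CPEB3 self-cleaving ribozyme mutants came from rounds of error-prone PCR and carried barcodes, which DNA sequencing matched to variants. In vitro transcription used T7 RNA polymerase at 37°C for 5 hours, with a further 15 min in DNase I before EDTA stopped the reaction; the ribozymes cleaved during both steps. The RNA was reverse transcribed with template switching and sequenced on Illumina. Relative activity is the cleaved/total read fraction of a variant divided by that of the unmutated ribozyme, averaged over three batches with at least 5 reads.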
Turning to UAACAGGGGGCCACAGCAGAAGCGUUCGCGUCGCAGCCCCUGUCAGAUUCGGGUGAAUCUGCGAAUUCUGCUGUAUAUCUC [A28G U51G], the self-cleavage amounted to 0.45. The figure for UAACAGGGGGCCACAGCAGAAGCGUUCGCGUCGCAGCCCCUGUCAGAUUCAGGUGAAUCUGCGAAUUCUGCUGUAUAUCUC [A28G U51A] is 0.63; for UAACAGGGGGCCACAGCAGAAGCGUUCGCGUCGCAGCCCCUGUCAGAUUCCGGUGAAUCUGCGAAUUCUGCUGUAUAUCUC [A28G U51C] it is 0.62; for UAACAGGGGGCCACAGCAGAAGCGUUCGCGUCGCAGCCCCUGUCAGAUUCUGGUGAAUCGGCGAAUUCUGCUGUAUAUCUC [A28G U60G] it is 0.16.

In the case of UAACAGGGGGCCACAGCAGAAGCGUUCGCGUCGCAGCCCCUGUCAGAUUCUGGUGAAUCCGCGAAUUCUGCUGUAUAUCUC [A28G U60C], the self-cleavage stood at 0.25. The figure for UAACAGGGGGCCACAGCAGAAGCGUUCGCGUCGCAGCCCCUGUCAGAUUCUGGUGAAUCAGCGAAUUCUGCUGUAUAUCUC [A28G U60A] is 0.32.

Consider UAACAGGGGGCCACAGCAGAAGCGUUCGCGUCGCAGCCCCUGACAGAUUCUGGUGAAUCUGCGAAUUCUGCUGUAUAUCUC [A28G U43A], for which the self-cleavage came to 0.86. The figure for UAACAGGGGGCCACAGCAGAAGCGUUCGCGUCGCAGCCCCUGGCAGAUUCUGGUGAAUCUGCGAAUUCUGCUGUAUAUCUC [A28G U43G] is 0.17. For the variant UAACAGGGGGCCACAGCAGAAGCGUUCGCGUCGCAGCCCCUGCCAGAUUCUGGUGAAUCUGCGAAUUCUGCUGUAUAUCUC [A28G U43C], the self-cleavage is 0.35. On to UAACAGGGGGCCACAGCAGAAGCGUUCGCGUCGCAGCCCCUGUCAGAUUCUGGUGAAUCUGCGAAUGCUGCUGUAUAUCUC [A28G U67G], for which the self-cleavage is 0.17. As for UAACAGGGGGCCACAGCAGAAGCGUUCGCGUCGCAGCCCCUGUCAGAUUCUGGUGAAUCUGCGAAUCCUGCUGUAUAUCUC [A28G U67C], the figure is 0.17; as for UAACAGGGGGCCACAGCAGAAGCGUUCGCGUCGCAGCCCCUGUCAGAUUCUGGUGAAUCUGCGAAUACUGCUGUAUAUCUC [A28G U67A], 0.27; as for UAACAGGGGGCCACAGCAGAAGCGUUCGCGUCGCAGCCCCUGUCAGAAUCUGGUGAAUCUGCGAAUUCUGCUGUAUAUCUC [A28G U48A], 0.26.

With UAACAGGGGGCCACAGCAGAAGCGUUCGCGUCGCAGCCCCUGUCAGACUCUGGUGAAUCUGCGAAUUCUGCUGUAUAUCUC [A28G U48C], the self-cleavage worked out at 0.29. As for UAACAGGGGGCCACAGCAGAAGCGUUCGCGUCGCAGCCCCUGUCAGAGUCUGGUGAAUCUGCGAAUUCUGCUGUAUAUCUC [A28G U48G], the figure is 0.43.

UAACAGGGGGCCACAGCAGAAGCGUUCGCGUCGCAGCCCCUGUCAGAUUCUGGUGAAUCUGCGAAGUCUGCUGUAUAUCUC [A28G U66G]: the self-cleavage is 0.2.

Take UAACAGGGGGCCACAGCAGAAGCGUUCGCGUCGCAGCCCCUGUCAGAUUCUGGUGAAUCUGCGAACUCUGCUGUAUAUCUC [A28G U66C]: the self-cleavage came to 0.26.

On to UAACAGGGGGCCACAGCAGAAGCGUUCGCGUCGCAGCCCCUGUCAGAUUCUGGUGAAUCUGCGAAAUCUGCUGUAUAUCUC [A28G U66A], for which the self-cleavage is 0.31. The figure for UAACAGGGGGCCACAGCAGAAGCGUUCGCGUCGCAGCCCCUGUCAGAUACUGGUGAAUCUGCGAAUUCUGCUGUAUAUCUC [A28G U49A] is 0.31; for UAACAGGGGGCCACAGCAGAAGCGUUCGCGUCGCAGCCCCUGUCAGAUCCUGGUGAAUCUGCGAAUUCUGCUGUAUAUCUC [A28G U49C] it is 0.22; for UAACAGGGGGCCACAGCAGAAGCGUUCGCGUCGCAGCCCCUGUCAGAUUCUGGUGAAACUGCGAAUUCUGCUGUAUAUCUC [A28G U58A] it is 0.24.

Consider UAACAGGGGGCCACAGCAGAAGCGUUCGCGUCGCAGCCCCUGUCAGAUUCUGGUGAAGCUGCGAAUUCUGCUGUAUAUCUC [A28G U58G], for which the self-cleavage was determined as 0.46.

On to UAACAGGGGGCCACAGCAGAAGCGUUCGCGUCGCAGCCCCUGUCAGAUUCUGGUGAACCUGCGAAUUCUGCUGUAUAUCUC [A28G U58C], for which the self-cleavage came out at 0.27.

Consider UAACAGGGGGCCACAGCAGAAGCGUUCGCGUCGCAGCCCCUGUCAGAUUCUGGUGAAUCUGCGAAUUCAGCUGUAUAUCUC [A28G U69A], for which the self-cleavage was determined as 0.29. The figure for UAACAGGGGGCCACAGCAGAAGCGUUCGCGUCGCAGCCCCUGUCAGAUUCUGGUGAAUCUGCGAAUUCGGCUGUAUAUCUC [A28G U69G] is 0.48; for UAACAGGGGGCCACAGCAGAAGCGUUCGCGUCGCAGCCCCUGUCAGAUUCUGGUGAAUCUGCGAAUUCCGCUGUAUAUCUC [A28G U69C] it is 0.25. Consider UAACAGGGGGCCACAGCAGAAGCGUUCGCGUCGCAGCCCCUGUCAGAUUCUGGGGAAUCUGCGAAUUCUGCUGUAUAUCUC [A28G U54G], for which the self-cleavage amounted to 0.41.

As to UAACAGGGGGCCACAGCAGAAGCGUUCGCGUCGCAGCCCCUGUCAGAUUCUGGCGAAUCUGCGAAUUCUGCUGUAUAUCUC [A28G U54C], the self-cleavage was 0.58. The figure for UAACAGGGGGCCACAGCAGAAGCGUUCGCGUCGCAGCCCCUGUCAGAUUCUGGAGAAUCUGCGAAUUCUGCUGUAUAUCUC [A28G U54A] is 0.6; for UAACAGGGGGCCACAGCAGAAGCGUUCGCGUCGCAGCCCCUGUCAGAUUCUGGUGAAUCUGCGAAUUCUGCAGUAUAUCUC [A28G U72A] it is 0.3; for UAACAGGGGGCCACAGCAGAAGCGUUCGCGUCGCAGCCCCAGUCAGAUUCUGGUGAAUCUGCGAAUUCUGCUGUAUAUCUC [A28G U41A] it is 0.27. For the variant UAACAGGGGGCCACAGCAGAAGCGUUCGCGUCGCAGCCCCCGUCAGAUUCUGGUGAAUCUGCGAAUUCUGCUGUAUAUCUC [A28G U41C], the self-cleavage worked out at 0.6. In the case of UAACAGGGGGCCACAGCAGAAGCGUUCGCGUCGCAGCCCCGGUCAGAUUCUGGUGAAUCUGCGAAUUCUGCUGUAUAUCUC [A28G U41G], the self-cleavage turned out to be 0.15. UAACAGGGGGCCACAGCAGAAGCGUUCGCGGCGCAGCCCCUGUCAGAUUCUGGUGAAUCUGCGAAUUCUGCUGUAUAUCUC [A28G U31G]: the self-cleavage was 0.25.
